Legend:
FcγRIIa H [1] = molecular target: T1, FcγRIIa H (human, UniProt P12318 34-217); assay: SPR (Biacore), antibody captured, FcγR as analyte; binding relative to GpH7-A5/GpH7-B3/GpL16-k0 = 100
T1 construct: extracellular domain; also called FcgRIIa H; FcγRIIa type H; not shown: His tag attached to the C terminus
T1 sequence (looked up): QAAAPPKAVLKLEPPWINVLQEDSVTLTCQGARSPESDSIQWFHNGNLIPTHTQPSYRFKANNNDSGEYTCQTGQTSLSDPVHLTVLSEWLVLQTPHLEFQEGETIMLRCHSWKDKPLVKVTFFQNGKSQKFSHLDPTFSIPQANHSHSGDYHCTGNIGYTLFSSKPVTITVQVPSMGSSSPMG

FcγRIIb = molecular target: T2, FcγRIIb (human, UniProt P31994 43-217); assay: as above
T2 construct: extracellular domain; also called FcgRIIb; 2b; not shown: His tag attached to the C terminus
T2 sequence (looked up): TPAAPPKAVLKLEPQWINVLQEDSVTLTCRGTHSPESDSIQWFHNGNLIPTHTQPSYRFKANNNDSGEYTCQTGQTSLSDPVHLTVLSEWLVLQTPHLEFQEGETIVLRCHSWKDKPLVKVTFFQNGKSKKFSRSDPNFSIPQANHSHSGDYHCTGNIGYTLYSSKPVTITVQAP

FcγRIIa H [2] = molecular target: T1, FcγRIIa H; assay: ratio of He/Con_2aH to He/Con_2b (relative SPR binding to FcγRIIa H over FcγRIIb)

B1: GpH7-A5/GpH7-B3 variant G236_12R/GpL16-k0 (antibody, human IgG1, kappa)
heavy 1: not shown
heavy 2: not shown
light: DIVMTQSPLSLPVTPGEPASISCQASESLVHSNRNTYLHWYLQKPGQSPQLLIYKVSNRFSGVPDRFSGSGSGTDFTLKISRVEAEDVGVYYCSQNTHVPPTFGQGTKVEIERTVAAPSVFIFPPSDEQLKSGTASVVCLLNNFYPREAKVQWKVDNALQSGNSQESVTEQDSKDSTYSLSSTLTLSKADYEKHKVYACEVTHQGLSSPVTKSFNRGEC
notes: Heterodimerized IgG1, mutation in the GpH7-B3 chain only; also called He Ab
B1 was tested, and the He/Con_2aH (FcγRIIa H [1]) was 34.2 control = 100, the He/Con_2b (FcγRIIb) was 6.8 control = 100 and the “He_2aH/2b (IIaH/IIb)” value (FcγRIIa H [2]) was 5.04.

B2: GpH7-A5/GpH7-B3 variant G236_13S/GpL16-k0 (antibody, human IgG1, kappa)
heavy 1: not shown
heavy 2: not shown
light: DIVMTQSPLSLPVTPGEPASISCQASESLVHSNRNTYLHWYLQKPGQSPQLLIYKVSNRFSGVPDRFSGSGSGTDFTLKISRVEAEDVGVYYCSQNTHVPPTFGQGTKVEIERTVAAPSVFIFPPSDEQLKSGTASVVCLLNNFYPREAKVQWKVDNALQSGNSQESVTEQDSKDSTYSLSSTLTLSKADYEKHKVYACEVTHQGLSSPVTKSFNRGEC
notes: as for B1
With B2 the He/Con_2aH (FcγRIIa H [1]) was 135 control = 100, the He/Con_2b (FcγRIIb) was 96.7 control = 100 and the “He_2aH/2b (IIaH/IIb)” value (FcγRIIa H [2]) was 1.39.

B3: GpH7-A5/GpH7-B3 variant G236_14T/GpL16-k0 (antibody, human IgG1, kappa)
heavy 1: not shown
heavy 2: not shown
light: DIVMTQSPLSLPVTPGEPASISCQASESLVHSNRNTYLHWYLQKPGQSPQLLIYKVSNRFSGVPDRFSGSGSGTDFTLKISRVEAEDVGVYYCSQNTHVPPTFGQGTKVEIERTVAAPSVFIFPPSDEQLKSGTASVVCLLNNFYPREAKVQWKVDNALQSGNSQESVTEQDSKDSTYSLSSTLTLSKADYEKHKVYACEVTHQGLSSPVTKSFNRGEC
notes: as for B1
For B3, the He/Con_2aH (FcγRIIa H [1]) was 103 control = 100, the He/Con_2b (FcγRIIb) was 57.8 control = 100 and the “He_2aH/2b (IIaH/IIb)” value (FcγRIIa H [2]) was 1.79.

B4: GpH7-A5/GpH7-B3 variant G236_15Y/GpL16-k0 (antibody, human IgG1, kappa)
heavy 1: not shown
heavy 2: not shown
light: DIVMTQSPLSLPVTPGEPASISCQASESLVHSNRNTYLHWYLQKPGQSPQLLIYKVSNRFSGVPDRFSGSGSGTDFTLKISRVEAEDVGVYYCSQNTHVPPTFGQGTKVEIERTVAAPSVFIFPPSDEQLKSGTASVVCLLNNFYPREAKVQWKVDNALQSGNSQESVTEQDSKDSTYSLSSTLTLSKADYEKHKVYACEVTHQGLSSPVTKSFNRGEC
notes: as for B1
With B4 the He/Con_2aH (FcγRIIa H [1]) was 136 control = 100, the He/Con_2b (FcγRIIb) was 39.5 control = 100 and the “He_2aH/2b (IIaH/IIb)” value (FcγRIIa H [2]) was 3.45.

B5: GpH7-A5/GpH7-B3 variant G236_16H/GpL16-k0 (antibody, human IgG1, kappa)
heavy 1: not shown
heavy 2: not shown
light: DIVMTQSPLSLPVTPGEPASISCQASESLVHSNRNTYLHWYLQKPGQSPQLLIYKVSNRFSGVPDRFSGSGSGTDFTLKISRVEAEDVGVYYCSQNTHVPPTFGQGTKVEIERTVAAPSVFIFPPSDEQLKSGTASVVCLLNNFYPREAKVQWKVDNALQSGNSQESVTEQDSKDSTYSLSSTLTLSKADYEKHKVYACEVTHQGLSSPVTKSFNRGEC
notes: as for B1
For B5, the He/Con_2aH (FcγRIIa H [1]) was 98.2 control = 100, the He/Con_2b (FcγRIIb) was 27.9 control = 100 and the “He_2aH/2b (IIaH/IIb)” value (FcγRIIa H [2]) was 3.51.

B6: GpH7-A5/GpH7-B3 variant G236_19Q/GpL16-k0 (antibody, human IgG1, kappa)
heavy 1: not shown
heavy 2: not shown
light: DIVMTQSPLSLPVTPGEPASISCQASESLVHSNRNTYLHWYLQKPGQSPQLLIYKVSNRFSGVPDRFSGSGSGTDFTLKISRVEAEDVGVYYCSQNTHVPPTFGQGTKVEIERTVAAPSVFIFPPSDEQLKSGTASVVCLLNNFYPREAKVQWKVDNALQSGNSQESVTEQDSKDSTYSLSSTLTLSKADYEKHKVYACEVTHQGLSSPVTKSFNRGEC
notes: as for B1
B6 was tested, and the He/Con_2aH (FcγRIIa H [1]) was 89.1 control = 100, the He/Con_2b (FcγRIIb) was 46.6 control = 100 and the “He_2aH/2b (IIaH/IIb)” value (FcγRIIa H [2]) was 1.91.

B7: GpH7-A5/GpH7-B3 variant G236_20W/GpL16-k0 (antibody, human IgG1, kappa)
heavy 1: not shown
heavy 2: not shown
light: DIVMTQSPLSLPVTPGEPASISCQASESLVHSNRNTYLHWYLQKPGQSPQLLIYKVSNRFSGVPDRFSGSGSGTDFTLKISRVEAEDVGVYYCSQNTHVPPTFGQGTKVEIERTVAAPSVFIFPPSDEQLKSGTASVVCLLNNFYPREAKVQWKVDNALQSGNSQESVTEQDSKDSTYSLSSTLTLSKADYEKHKVYACEVTHQGLSSPVTKSFNRGEC
notes: as for B1
B7 was tested, and the He/Con_2aH (FcγRIIa H [1]) was 147 control = 100, the He/Con_2b (FcγRIIb) was 58.2 control = 100 and the “He_2aH/2b (IIaH/IIb)” value (FcγRIIa H [2]) was 2.52.

B8: GpH7-A5/GpH7-B3 variant L234_01G/GpL16-k0 (antibody, human IgG1, kappa)
heavy 1: not shown
heavy 2: not shown
light: DIVMTQSPLSLPVTPGEPASISCQASESLVHSNRNTYLHWYLQKPGQSPQLLIYKVSNRFSGVPDRFSGSGSGTDFTLKISRVEAEDVGVYYCSQNTHVPPTFGQGTKVEIERTVAAPSVFIFPPSDEQLKSGTASVVCLLNNFYPREAKVQWKVDNALQSGNSQESVTEQDSKDSTYSLSSTLTLSKADYEKHKVYACEVTHQGLSSPVTKSFNRGEC
notes: as for B1
B8 was tested, and the He/Con_2aH (FcγRIIa H [1]) was 75.6 control = 100, the He/Con_2b (FcγRIIb) was 50.7 control = 100 and the “He_2aH/2b (IIaH/IIb)” value (FcγRIIa H [2]) was 1.49.

B9: GpH7-A5/GpH7-B3 variant L235_12R/GpL16-k0 (antibody, human IgG1, kappa)
heavy 1: not shown
heavy 2: not shown
light: DIVMTQSPLSLPVTPGEPASISCQASESLVHSNRNTYLHWYLQKPGQSPQLLIYKVSNRFSGVPDRFSGSGSGTDFTLKISRVEAEDVGVYYCSQNTHVPPTFGQGTKVEIERTVAAPSVFIFPPSDEQLKSGTASVVCLLNNFYPREAKVQWKVDNALQSGNSQESVTEQDSKDSTYSLSSTLTLSKADYEKHKVYACEVTHQGLSSPVTKSFNRGEC
notes: as for B1
In the case of B9, the He/Con_2aH (FcγRIIa H [1]) is reported as 30.3 control = 100 and the “He_2aH/2b (IIaH/IIb)” value (FcγRIIa H [2]) is reported as 3.16.
